These results are taken from article PMC10248797, “Ndel1 disfavors dynein–dynactin–adaptor complex formation in two distinct ways” (The Journal of Biological Chemistry, 2023).

B5: Lis1 (in solution) (natural protein, UniProt P43034 1-410, looked up)
chain: MVLSQRQRDELNRAIADYLRSNGYEEAYSVFKKEAELDVNEELDKKYAGLLEKKWTSVIRLQKKVMELESKLNEAKEEFTSGGPLGQKRDPKEWIPRPPEKYALSGHRSPVTRVIFHPVFSVMVSASEDATIKVWDYETGDFERTLKGHTDSVQDISFDHSGKLLASCSADMTIKLWDFQGFECIRTMHGHDHNVSSVAIMPNGDHIVSASRDKTIKMWEVQTGYCVKTFTGHREWVRMVRPNQDGTLIASCSNDQTVRVWVVATKECKAELREHEHVVECISWAPESSYSSISEATGSETKKSGKPGPFLLSGSRDKTIKMWDVSTGMCLMTLVGHDNWVRGVLFHSGGKFILSCADDKTLRVWDYKNKRCMKTLNAHEHFVTSLDFHKTAPYVVTGSVDQTVKVWECR

One test concerns the target T1, Lis1 (UniProt P43034 1-410).
T1 construct: Lis1; also called ZZ-TEV-Lis1; source: Sf9 cells, purified (IgG Sepharose, TEV cleavage, size-exclusion chromatography); not shown: ZZ, N-terminal, cleaved
T1 sequence (looked up): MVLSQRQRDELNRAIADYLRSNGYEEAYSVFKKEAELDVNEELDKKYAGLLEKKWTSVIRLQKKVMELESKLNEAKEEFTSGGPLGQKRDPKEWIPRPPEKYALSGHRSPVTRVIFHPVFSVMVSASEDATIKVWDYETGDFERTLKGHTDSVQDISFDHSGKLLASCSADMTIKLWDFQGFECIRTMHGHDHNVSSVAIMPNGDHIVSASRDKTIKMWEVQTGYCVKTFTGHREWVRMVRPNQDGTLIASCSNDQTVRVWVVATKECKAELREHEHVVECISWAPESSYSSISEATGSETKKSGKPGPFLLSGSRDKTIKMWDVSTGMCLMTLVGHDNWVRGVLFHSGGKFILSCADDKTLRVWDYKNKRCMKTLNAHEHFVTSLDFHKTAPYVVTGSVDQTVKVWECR
Description: pull-down; depletion of 5 nM Lis1 from solution by Ndel1 coupled to Magne HaloTag beads; binding buffer with 150 mM KCl; SDS-PAGE densitometry of the supernatant; quadratic binding equation. The conditions noted are these: both partners purified.

The target of test [1] is T2, SNAP-tagged, recombinant full-length human cytoplasmic dynein-1 with all associated accessory chains (human, UniProt Q14204 1-4646; Q13409-3 1-612; O43237 1-492; P63172 1-113; Q9NP97 1-96; P63167 …). Put plainly: cell-based or functional assay.
The test “Lis1 (in solution)” addresses B5. Put plainly: pull-down; quantitative depletion assay: Ndel1 construct on Magne HaloTag beads via the N-terminal HaloTag; 5 nM Lis1 in solution; binding buffer with 150 mM KCl; SDS-PAGE densitometry; quadratic binding equation. The conditions noted are these: both partners purified.
Test [2] concerns the target T2, SNAP-tagged, recombinant full-length …. Description: pull-down; quantitative depletion assay: 0-600 nM Ndel1 construct coupled to Magne HaloTag beads via the HaloTag; 5 nM dynein in solution, 45 min; binding buffer 30 mM Hepes pH 7.4, 36 mM KCl, 1 mM ADP, 1 mg/ml casein, 0.1% NP-40; supernatant on SDS-PAGE, densitometry; one-site fit with Bmax set to 1. Conditions: both partners purified.

The target is the same in test [3]. Put plainly: pull-down; dynein-Lis1 binding curve (Fig. S4G); one-site fit with Bmax set to 1; who was on the beads is not told for this curve. The conditions noted are these: both partners purified.

B1: Full-length Ndel1 with N-terminal HaloTag and C-terminal 6X-His tag (natural protein, UniProt Q9GZM8 1-345, looked up)
chain: MDGEDIPDFSSLKEETAYWKELSLKYKQSFQEARDELVEFQEGSRELEAELEAQLVQAEQRNRDLQADNQRLKYEVEALKEKLEHQYAQSYKQVSVLEDDLSQTRAIKEQLHKYVRELEQANDDLERAKRATIVSLEDFEQRLNQAIERNAFLESELDEKESLLVSVQRLKDEARDLRQELAVRERQQEVTRKSAPSSPTLDCEKMDSAVQASLSLPATPVGKGTENTFPSPKAIPNGFGTSPLTPSARISALNIVGDLLRKVGALESKLAACRNFAKDQASRKSYISGNVNCGVLNGNGTKFSRSGHTSFFDKGAVNGFDPAPPPPGLGSSRPSSAPGMLPLSV
notes: Coupled to Magne HaloTag beads through the HaloTag; also called FL-Ndel1; Halo-Ndel1; source: Sf9 cells, purified (IgG Sepharose, TEV cleavage, size-exclusion chromatography); not shown: ZZ, N-terminal, cleaved; HaloTag, N-terminal, kept; His6, C-terminal, kept
With B1, the Kd (as a rule, the concentration at which binding is half-saturated) with Lis1 came to 4.6 nM.

B2: Full-length phosphomimetic Ndel1 (S198D; T219D; S231D; S242D) with N-terminal HaloTag and C-terminal 6X-His tag (natural protein, UniProt Q9GZM8 1-345, looked up)
chain: MDGEDIPDFSSLKEETAYWKELSLKYKQSFQEARDELVEFQEGSRELEAELEAQLVQAEQRNRDLQADNQRLKYEVEALKEKLEHQYAQSYKQVSVLEDDLSQTRAIKEQLHKYVRELEQANDDLERAKRATIVSLEDFEQRLNQAIERNAFLESELDEKESLLVSVQRLKDEARDLRQELAVRERQQEVTRKSAPSDPTLDCEKMDSAVQASLSLPADPVGKGTENTFPDPKAIPNGFGTDPLTPSARISALNIVGDLLRKVGALESKLAACRNFAKDQASRKSYISGNVNCGVLNGNGTKFSRSGHTSFFDKGAVNGFDPAPPPPGLGSSRPSSAPGMLPLSV
notes: Ndel1 with the four CDK1 sites changed to aspartic acid; also called FL-Ndel1PM; Halo-Ndel1PM; source: Sf9 cells, purified (IgG Sepharose, TEV cleavage, size-exclusion chromatography); not shown: ZZ, N-terminal, cleaved; HaloTag, N-terminal, kept; His6, C-terminal, kept
On to B2, for which the affinity with Lis1, expressed as Kd, was 3.9 nM.

B3: Halo-tagged full-length Ndel1 with C-terminal 6X-His tag (natural protein, UniProt Q9GZM8 1-345, looked up)
chain: MDGEDIPDFSSLKEETAYWKELSLKYKQSFQEARDELVEFQEGSRELEAELEAQLVQAEQRNRDLQADNQRLKYEVEALKEKLEHQYAQSYKQVSVLEDDLSQTRAIKEQLHKYVRELEQANDDLERAKRATIVSLEDFEQRLNQAIERNAFLESELDEKESLLVSVQRLKDEARDLRQELAVRERQQEVTRKSAPSSPTLDCEKMDSAVQASLSLPATPVGKGTENTFPSPKAIPNGFGTSPLTPSARISALNIVGDLLRKVGALESKLAACRNFAKDQASRKSYISGNVNCGVLNGNGTKFSRSGHTSFFDKGAVNGFDPAPPPPGLGSSRPSSAPGMLPLSV
notes: Ndel1; 345 residues by the printed range 194-345; also called FL-Ndel1; ZZ-TEV-Halo-Ndel1-His6; source: Sf9, purified (IgG Sepharose, TEV cleavage, SEC); not shown: ZZ, N-terminal, cleaved; HaloTag, N-terminal, kept; His6, C-terminal, kept
Consider B3, for which, in test [1], the “landing rate of processive DDB events (smTIRF) with 300 nM FL-Ndel1, against DDB alone” value was roughly 5 fold reduction; the “processive landing rate of DDB (smTIRF) with 50 nM FL-Ndel1, against DDB alone” value is 1.7 fold reduction; the “velocity of DDB (smTIRF) with 300 nM FL-Ndel1, against DDB alone” value was roughly 2 fold reduction. The molecule further returned a Kd with Lis1 (in solution) of roughly 4 nM. Further, the Kd in test [2] is roughly 33 nM.

B4: Halo-tagged full-length Ndel1 with the four CDK1 sites mutated to aspartic acid (S198D; T219D; S231D; S242D), with C-terminal 6X-His tag (natural protein, UniProt Q9GZM8 1-345, looked up)
chain: MDGEDIPDFSSLKEETAYWKELSLKYKQSFQEARDELVEFQEGSRELEAELEAQLVQAEQRNRDLQADNQRLKYEVEALKEKLEHQYAQSYKQVSVLEDDLSQTRAIKEQLHKYVRELEQANDDLERAKRATIVSLEDFEQRLNQAIERNAFLESELDEKESLLVSVQRLKDEARDLRQELAVRERQQEVTRKSAPSDPTLDCEKMDSAVQASLSLPADPVGKGTENTFPDPKAIPNGFGTDPLTPSARISALNIVGDLLRKVGALESKLAACRNFAKDQASRKSYISGNVNCGVLNGNGTKFSRSGHTSFFDKGAVNGFDPAPPPPGLGSSRPSSAPGMLPLSV
notes: Ndel1 with four phosphomimetic mutations; also called FL-Ndel1^PM; Ndel1^PM; source: Sf9, purified (IgG Sepharose, TEV cleavage, SEC); not shown: ZZ, N-terminal, cleaved; HaloTag, N-terminal, kept; His6, C-terminal, kept
For the molecule B4, the “processive landing rate of DDB (smTIRF) with 50 nM FL-Ndel1^PM, against DDB alone” value in test [1] amounted to 10 fold reduction. Further, the Kd with Lis1 (in solution) was roughly 4 nM.
On to B5, for which, in test [1], the “landing rate of DDB (smTIRF) with 50 nM Lis1 and 50 nM FL-Ndel1^PM together, against DDB alone” value is roughly 2 fold reduction.

B6: Halo-Lis1 (natural protein, UniProt P43034 1-410, looked up)
chain: MVLSQRQRDELNRAIADYLRSNGYEEAYSVFKKEAELDVNEELDKKYAGLLEKKWTSVIRLQKKVMELESKLNEAKEEFTSGGPLGQKRDPKEWIPRPPEKYALSGHRSPVTRVIFHPVFSVMVSASEDATIKVWDYETGDFERTLKGHTDSVQDISFDHSGKLLASCSADMTIKLWDFQGFECIRTMHGHDHNVSSVAIMPNGDHIVSASRDKTIKMWEVQTGYCVKTFTGHREWVRMVRPNQDGTLIASCSNDQTVRVWVVATKECKAELREHEHVVECISWAPESSYSSISEATGSETKKSGKPGPFLLSGSRDKTIKMWDVSTGMCLMTLVGHDNWVRGVLFHSGGKFILSCADDKTLRVWDYKNKRCMKTLNAHEHFVTSLDFHKTAPYVVTGSVDQTVKVWECR
notes: Lis1; also called ZZ-TEV-Halo-Lis1; Lis1-conjugated beads; source: Sf9, purified (IgG Sepharose, TEV cleavage, SEC); not shown: ZZ, N-terminal, cleaved; HaloTag, N-terminal, kept
For the molecule B6, the dissociation constant (Kd) in test [3] stood at 101 nM.

B7: Halo-tagged Ndel1 with the C-terminal coiled coil (256-291) deleted, with C-terminal 6X-His tag (natural protein, UniProt Q9GZM8 1-345, looked up)
chain: MDGEDIPDFSSLKEETAYWKELSLKYKQSFQEARDELVEFQEGSRELEAELEAQLVQAEQRNRDLQADNQRLKYEVEALKEKLEHQYAQSYKQVSVLEDDLSQTRAIKEQLHKYVRELEQANDDLERAKRATIVSLEDFEQRLNQAIERNAFLESELDEKESLLVSVQRLKDEARDLRQELAVRERQQEVTRKSAPSSPTLDCEKMDSAVQASLSLPATPVGKGTENTFPSPKAIPNGFGTSPLTPSARISALNINCGVLNGNGTKFSRSGHTSFFDKGAVNGFDPAPPPPGLGSSRPSSAPGMLPLSV
notes: Ndel1 with residues 256-291 deleted; also called Ndel1^ΔCTCC; FL-Ndel1^ΔCTCC; source: Sf9, purified (IgG Sepharose, TEV cleavage, SEC); not shown: ZZ, N-terminal, cleaved; HaloTag, N-terminal, kept; His6, C-terminal, kept
On to B7, for which the Kd in test [2] was found to be 55 nM.

B8: Halo-tagged Ndel1(1-192), N-terminal coiled coil only, with C-terminal 6X-His tag (domain or fragment, UniProt Q9GZM8 1-192, looked up)
chain: MDGEDIPDFSSLKEETAYWKELSLKYKQSFQEARDELVEFQEGSRELEAELEAQLVQAEQRNRDLQADNQRLKYEVEALKEKLEHQYAQSYKQVSVLEDDLSQTRAIKEQLHKYVRELEQANDDLERAKRATIVSLEDFEQRLNQAIERNAFLESELDEKESLLVSVQRLKDEARDLRQELAVRERQQEVTR
notes: Ndel1 residues 1-192; also called NT-Ndel1; ZZ-TEV-Halo-Ndel1(1-192)-His6; source: Sf9, purified (IgG Sepharose, TEV cleavage, SEC); not shown: ZZ, N-terminal, cleaved; HaloTag, N-terminal, kept; His6, C-terminal, kept
For B8, in test [1], the “landing rate of processive DDB events (smTIRF) with 300 nM NT-Ndel1, against DDB alone” value is roughly 2 fold reduction and the “velocity of DDB (smTIRF) with 300 nM NT-Ndel1, against DDB alone” value was roughly 2 fold reduction. The same molecule yielded a Kd with Lis1 (in solution) of roughly 1.2 nM. Moreover, the Kd in test [2] was 79 nM.
